Assay results reported in US20140178378A1.

Biological target: IL-6/sIL-6R complex
Test: cell-based or functional assay

## wild type sgp130Fc (from UniProt P40189 23-619) (Fc fusion)
  IC50, inhibition of IL-6/sIL-6R-induced proliferation of BAF3/gp130 cells (MTS cell viability assay, 3 days): 800 ng/mL
